Source: the RNAGym collection of RNA variant scans (doi:10.7554/elife.80360)

B1: Hammerhead Ribozyme (parent)
chain: ACCGGAUGUGCUUUCCGGUCUGAUGAGUCCGUGAGGACGAAACAG

Variants of: B1
Test: self-cleavage, relative activity (ratio to wild type); higher = more cleavage; co-transcriptional

| Variant | self-cleavage |
| --- | --- |
| ACCGGAUGUGCUUUCCGGUAUGAUGAGUCCGUGAGAACGAAACAG | 0.33 |
| ACCGGAUGUGCUUUCCGGUAUGAUGAGUCCGUGAGCACGAAACAG | 0.313 |
| ACCGGAUGUGCUUUCCGGUAUGAUGAGUCCGUGAGUACGAAACAG | 0.306 |
| ACCGGAUGUGCUUUCCGGUAUGAUGAGUCCGUGAGGACAAAACAG | 0.347 |
| ACCGGAUGUGCUUUCCGGUAUGAUGAGUCCGUGAGGACCAAACAG | 0.393 |
| ACCGGAUGUGCUUUCCGGUAUGAUGAGUCCGUGAGGACUAAACAG | 0.329 |
| ACCGGAUGUGCUUUCCGGUAUGAUGAGUCCGUGAGGACGAAACAA | 0.396 |
| ACCGGAUGUGCUUUCCGGUAUGAUGAGUCCGUGAGGACGAAACAC | 0.414 |
| ACCGGAUGUGCUUUCCGGUAUGAUGAGUCCGUGAGGACGAAACAU | 0.357 |
| ACCGGAUGUGCUUUCCGGUAAGAUGAGUCCGUGAGGACGAAACAG | 0.228 |
| ACCGGAUGUGCUUUCCGGUACGAUGAGUCCGUGAGGACGAAACAG | 0.394 |
| ACCGGAUGUGCUUUCCGGUAGGAUGAGUCCGUGAGGACGAAACAG | 0.326 |
| ACCGGAUGUGCUUUCCGGUAUGAAGAGUCCGUGAGGACGAAACAG | 0.764 |
| ACCGGAUGUGCUUUCCGGUAUGACGAGUCCGUGAGGACGAAACAG | 0.368 |
| ACCGGAUGUGCUUUCCGGUAUGAGGAGUCCGUGAGGACGAAACAG | 0.594 |
| ACCGGAUGUGCUUUCCGGUAUGAUGAGACCGUGAGGACGAAACAG | 0.435 |
| ACCGGAUGUGCUUUCCGGUAUGAUGAGCCCGUGAGGACGAAACAG | 0.487 |
| ACCGGAUGUGCUUUCCGGUAUGAUGAGGCCGUGAGGACGAAACAG | 0.552 |
| ACCGGAUGUGCUUUCCGGUAUGAUGAGUCCGAGAGGACGAAACAG | 0.471 |
| ACCGGAUGUGCUUUCCGGUAUGAUGAGUCCGCGAGGACGAAACAG | 0.541 |
| ACCGGAUGUGCUUUCCGGUAUGAUGAGUCCGGGAGGACGAAACAG | 0.255 |
| ACCGGAUGUGCUUUCCGGUGUGAUGAGUCCGUGAGGACGAAACAG | 0.341 |
| ACCGGAUGUGCUUUCCGGUGUGCUGAGUCCGUGAGGACGAAACAG | 0.271 |

| Variant | self-cleavage |
| --- | --- |
| ACCGGAUGUGCUUUCCGGUGUGGUGAGUCCGUGAGGACGAAACAG | 0.386 |
| ACCGGAUGUGCUUUCCGGUGUGUUGAGUCCGUGAGGACGAAACAG | 0.317 |
| ACCGGAUGUGCUUUCCGGUGUGAUGCGUCCGUGAGGACGAAACAG | 0.404 |
| ACCGGAUGUGCUUUCCGGUGUGAUGGGUCCGUGAGGACGAAACAG | 0.302 |
| ACCGGAUGUGCUUUCCGGUGUGAUGUGUCCGUGAGGACGAAACAG | 0.29 |
| ACCGGAUGUGCUUUCCGGUGUGAUGAGUCCGUGCGGACGAAACAG | 0.365 |
| ACCGGAUGUGCUUUCCGGUGUGAUGAGUCCGUGGGGACGAAACAG | 0.245 |
| ACCGGAUGUGCUUUCCGGUGUGAUGAGUCCGUGUGGACGAAACAG | 0.383 |
| ACCGGAUGUGCUUUCCGGUGUGAUGAGUCCGUGAGGCCGAAACAG | 0.298 |
| ACCGGAUGUGCUUUCCGGUGUGAUGAGUCCGUGAGGGCGAAACAG | 0.3 |
| ACCGGAUGUGCUUUCCGGUGUGAUGAGUCCGUGAGGUCGAAACAG | 0.272 |
| ACCGGAUGUGCUUUCCGGUGUGAUGAGUCCGUGAGGACGCAACAG | 0.322 |
| ACCGGAUGUGCUUUCCGGUGUGAUGAGUCCGUGAGGACGGAACAG | 0.324 |
| ACCGGAUGUGCUUUCCGGUGUGAUGAGUCCGUGAGGACGUAACAG | 0.355 |
| ACCGGAUGUGCUUUCCGGUGUGAUGAGUCCGUGAGGACGACACAG | 0.329 |
| ACCGGAUGUGCUUUCCGGUGUGAUGAGUCCGUGAGGACGAGACAG | 0.332 |
| ACCGGAUGUGCUUUCCGGUGUGAUGAGUCCGUGAGGACGAUACAG | 0.371 |
| ACCGGAUGUGCUUUCCGGUGUGAUGAGUCCGUGAGGACGAACCAG | 0.307 |
| ACCGGAUGUGCUUUCCGGUGUGAUGAGUCCGUGAGGACGAAGCAG | 0.324 |
| ACCGGAUGUGCUUUCCGGUGUGAUGAGUCCGUGAGGACGAAUCAG | 0.313 |
| ACCGGAUGUGCUUUCCGGUGUGAUGAGUCCGUGAGGACGAAACCG | 0.278 |
| ACCGGAUGUGCUUUCCGGUGUGAUGAGUCCGUGAGGACGAAACGG | 0.629 |
| ACCGGAUGUGCUUUCCGGUGUGAUGAGUCCGUGAGGACGAAACUG | 0.309 |

| Variant | self-cleavage |
| --- | --- |
| ACCGGAUGUGCUUUCCGGUGUGAUGAGUACGUGAGGACGAAACAG | 0.312 |
| ACCGGAUGUGCUUUCCGGUGUGAUGAGUGCGUGAGGACGAAACAG | 0.35 |
| ACCGGAUGUGCUUUCCGGUGUGAUGAGUUCGUGAGGACGAAACAG | 0.336 |
| ACCGGAUGUGCUUUCCGGUGUGAUGAGUCAGUGAGGACGAAACAG | 0.335 |
| ACCGGAUGUGCUUUCCGGUGUGAUGAGUCGGUGAGGACGAAACAG | 0.37 |
| ACCGGAUGUGCUUUCCGGUGUGAUGAGUCUGUGAGGACGAAACAG | 0.255 |
| ACCGGAUGUGCUUUCCGGUGUGAUGAGUCCGUGAGGAAGAAACAG | 0.241 |
| ACCGGAUGUGCUUUCCGGUGUGAUGAGUCCGUGAGGAGGAAACAG | 0.239 |
| ACCGGAUGUGCUUUCCGGUGUGAUGAGUCCGUGAGGAUGAAACAG | 0.38 |
| ACCGGAUGUGCUUUCCGGUGUGAUGAGUCCGUGAGGACGAAAAAG | 0.353 |
| ACCGGAUGUGCUUUCCGGUGUGAUGAGUCCGUGAGGACGAAAGAG | 0.432 |
| ACCGGAUGUGCUUUCCGGUGUGAUGAGUCCGUGAGGACGAAAUAG | 0.298 |
| ACCGGAUGUGCUUUCCGGUGUAAUGAGUCCGUGAGGACGAAACAG | 0.252 |
| ACCGGAUGUGCUUUCCGGUGUCAUGAGUCCGUGAGGACGAAACAG | 0.43 |
| ACCGGAUGUGCUUUCCGGUGUUAUGAGUCCGUGAGGACGAAACAG | 0.343 |
| ACCGGAUGUGCUUUCCGGUGUGAUAAGUCCGUGAGGACGAAACAG | 0.314 |
| ACCGGAUGUGCUUUCCGGUGUGAUCAGUCCGUGAGGACGAAACAG | 0.503 |
| ACCGGAUGUGCUUUCCGGUGUGAUUAGUCCGUGAGGACGAAACAG | 0.313 |
| ACCGGAUGUGCUUUCCGGUGUGAUGAAUCCGUGAGGACGAAACAG | 0.381 |
| ACCGGAUGUGCUUUCCGGUGUGAUGACUCCGUGAGGACGAAACAG | 0.252 |
| ACCGGAUGUGCUUUCCGGUGUGAUGAUUCCGUGAGGACGAAACAG | 0.265 |
| ACCGGAUGUGCUUUCCGGUGUGAUGAGUCCAUGAGGACGAAACAG | 0.319 |
| ACCGGAUGUGCUUUCCGGUGUGAUGAGUCCCUGAGGACGAAACAG | 0.321 |

| Variant | self-cleavage |
| --- | --- |
| ACCGGAUGUGCUUUCCGGUGUGAUGAGUCCUUGAGGACGAAACAG | 0.356 |
| ACCGGAUGUGCUUUCCGGUGUGAUGAGUCCGUAAGGACGAAACAG | 0.333 |
| ACCGGAUGUGCUUUCCGGUGUGAUGAGUCCGUCAGGACGAAACAG | 0.327 |
| ACCGGAUGUGCUUUCCGGUGUGAUGAGUCCGUUAGGACGAAACAG | 0.367 |
| ACCGGAUGUGCUUUCCGGUGUGAUGAGUCCGUGAAGACGAAACAG | 0.287 |
| ACCGGAUGUGCUUUCCGGUGUGAUGAGUCCGUGACGACGAAACAG | 0.361 |
| ACCGGAUGUGCUUUCCGGUGUGAUGAGUCCGUGAUGACGAAACAG | 0.353 |
| ACCGGAUGUGCUUUCCGGUGUGAUGAGUCCGUGAGAACGAAACAG | 0.31 |
| ACCGGAUGUGCUUUCCGGUGUGAUGAGUCCGUGAGCACGAAACAG | 0.274 |
| ACCGGAUGUGCUUUCCGGUGUGAUGAGUCCGUGAGUACGAAACAG | 0.305 |
| ACCGGAUGUGCUUUCCGGUGUGAUGAGUCCGUGAGGACAAAACAG | 0.34 |
| ACCGGAUGUGCUUUCCGGUGUGAUGAGUCCGUGAGGACCAAACAG | 0.321 |
| ACCGGAUGUGCUUUCCGGUGUGAUGAGUCCGUGAGGACUAAACAG | 0.316 |
| ACCGGAUGUGCUUUCCGGUGUGAUGAGUCCGUGAGGACGAAACAA | 0.356 |
| ACCGGAUGUGCUUUCCGGUGUGAUGAGUCCGUGAGGACGAAACAC | 0.302 |
| ACCGGAUGUGCUUUCCGGUGUGAUGAGUCCGUGAGGACGAAACAU | 0.316 |
| ACCGGAUGUGCUUUCCGGUGAGAUGAGUCCGUGAGGACGAAACAG | 0.286 |
| ACCGGAUGUGCUUUCCGGUGCGAUGAGUCCGUGAGGACGAAACAG | 0.305 |
| ACCGGAUGUGCUUUCCGGUGGGAUGAGUCCGUGAGGACGAAACAG | 0.376 |
| ACCGGAUGUGCUUUCCGGUGUGAAGAGUCCGUGAGGACGAAACAG | 0.399 |
| ACCGGAUGUGCUUUCCGGUGUGACGAGUCCGUGAGGACGAAACAG | 0.302 |
| ACCGGAUGUGCUUUCCGGUGUGAGGAGUCCGUGAGGACGAAACAG | 0.353 |
| ACCGGAUGUGCUUUCCGGUGUGAUGAGACCGUGAGGACGAAACAG | 0.268 |

| Variant | self-cleavage |
| --- | --- |
| ACCGGAUGUGCUUUCCGGUGUGAUGAGCCCGUGAGGACGAAACAG | 0.261 |
| ACCGGAUGUGCUUUCCGGUGUGAUGAGGCCGUGAGGACGAAACAG | 0.323 |
| ACCGGAUGUGCUUUCCGGUGUGAUGAGUCCGAGAGGACGAAACAG | 0.305 |
| ACCGGAUGUGCUUUCCGGUGUGAUGAGUCCGCGAGGACGAAACAG | 0.325 |
| ACCGGAUGUGCUUUCCGGUGUGAUGAGUCCGGGAGGACGAAACAG | 0.28 |
| ACCGGAUGUGCUUUCCGGUUUGAUGAGUCCGUGAGGACGAAACAG | 0.697 |
| ACCGGAUGUGCUUUCCGGUUUGCUGAGUCCGUGAGGACGAAACAG | 0.353 |
| ACCGGAUGUGCUUUCCGGUUUGGUGAGUCCGUGAGGACGAAACAG | 0.356 |
| ACCGGAUGUGCUUUCCGGUUUGUUGAGUCCGUGAGGACGAAACAG | 0.279 |
| ACCGGAUGUGCUUUCCGGUUUGAUGCGUCCGUGAGGACGAAACAG | 0.321 |
| ACCGGAUGUGCUUUCCGGUUUGAUGGGUCCGUGAGGACGAAACAG | 0.262 |
| ACCGGAUGUGCUUUCCGGUUUGAUGUGUCCGUGAGGACGAAACAG | 0.411 |
| ACCGGAUGUGCUUUCCGGUUUGAUGAGUCCGUGCGGACGAAACAG | 0.369 |
| ACCGGAUGUGCUUUCCGGUUUGAUGAGUCCGUGGGGACGAAACAG | 0.407 |
| ACCGGAUGUGCUUUCCGGUUUGAUGAGUCCGUGUGGACGAAACAG | 0.356 |
| ACCGGAUGUGCUUUCCGGUUUGAUGAGUCCGUGAGGCCGAAACAG | 0.549 |
| ACCGGAUGUGCUUUCCGGUUUGAUGAGUCCGUGAGGGCGAAACAG | 0.565 |
| ACCGGAUGUGCUUUCCGGUUUGAUGAGUCCGUGAGGUCGAAACAG | 0.403 |
| ACCGGAUGUGCUUUCCGGUUUGAUGAGUCCGUGAGGACGCAACAG | 0.407 |
| ACCGGAUGUGCUUUCCGGUUUGAUGAGUCCGUGAGGACGGAACAG | 0.41 |
| ACCGGAUGUGCUUUCCGGUUUGAUGAGUCCGUGAGGACGUAACAG | 0.246 |
| ACCGGAUGUGCUUUCCGGUUUGAUGAGUCCGUGAGGACGACACAG | 0.373 |
